Measurements: US12180485B2, “Repressible control of gene expression” (TRUSTEES OF BOSTON UNIVERSITY, priority 2020, dated 2024)
Entries after “also recorded” stand apart in the source; their conditions may differ.

Legend:
mCherry [1] = assay: Split Cas13 (559/560) or WTCas13 driven by inducible promoters (NFkB, CAGA12, AP1), mCherry knockdown; format: cell-based; details: NFkB promoter with TGFbeta; CAGA12 promoter with TNFalpha; AP1 promoter with PMA
Text: FIG. 13A-13E is a series of schematics and graphs showing the coupling of split Cas13 (559/560) expression to inducible promoters responsive to endogenous signals. Inducible promoters responsive to endogenous signals drove split Cas13 expression for the construction of AND logic gate. FIG. 13A is a schematic showing the transfection compositions of endogenous signal-responsive promoters (e.g., “short response elements” and “miniP”) driving split Cas13d's. […] FIG. 13E is a series of bar graphs showing that orthogonality among the 3 inducible promoters tested. In FIG. 13B-13D, the left-right order of the bars for each design is the same as the top-down order of the legend for each bar graph, and “NT-gRNA” is non-target gRNA. In FIG. 13E, the left-right order of the bars is the same as the top-down order of the legend for each bar graph.

NFkB promoter = assay: Orthogonality of inducible promoters driving fluorescent proteins; format: cell-based; details: PMA is the inducer for AP1 promoter
Text: Although the propensity of many Cas13 splits to reconstitute spontaneously has led to leaky knockdown activity when coupled with CID systems, transcriptional control of such splits creates an AND gate logic. Inducible promoters (IP) such as WNT, NFkB, CAGA12, and AP1 promoters are available to orthogonally drive split Cas13 expression. In such design, there can only be target knockdown activity when there is input for both promoters. After verification for the ability of these promoters to inducibly drive gene expression using fluorescent proteins (see e.g., FIG. 13E), experiments were conducted with split RfxCas13d pieces and WT RfxCas13d. The chosen split was 559/560 as this split pair is able to achieve target knockdown efficiency more than 80%, and its knockdown ability surpasses that of WT RfxCas13d when coupled with the GIB CID system. Inducible promoter driving the WT Cas13 serves as the positive control (see e.g., FIG. 13A middle panel; see e.g., setting 3 in FIG. 13B, corresponding to “IP-WT” in FIG. 13B-13D). The highest inducibility among the 3 IPs was 30% inducibility with the promoter CAGA12. […] As such, the aforementioned constructs (e.g., split recombinase and IPs) can be integrated into AAVS1 sites and their performance evaluated.

mCherry [2] = assay: mCherry knockdown by inducible split RfxCas13d (ON switch) in transfected HEK 293 FT cells, flow cytometry; format: cell-based
HLA-A2 = assay: Endogenous gene knockdown: HLA-A2 antibody staining of HEK 293FT cells transfected with B2M targeting gRNA, flow cytometry; format: cell-based; details: RAP inducible split pair, compared with WT RfxCas13
[3] = tested on: mCherry reporter and endogenous transcripts in HEK293T cells; details: cited from earlier work
[4] = tested on: bystander fluorescent proteins (GFP, BFP, iRFP); assay: Collateral cleavage of bystander fluorescent proteins by Cas13d during mCherry on-target knockdown; format: cell-based
Text: FIG. 5A-5C is a series of schematics and graphs showing collateral activity of Cas13d. […] As the plasmid dosage of the bystander fluorescent protein decreased, bystander expression was knocked down at a higher level.
The green fluorescent protein (GFP) was used initially as a transfection marker and as a non-targeted gene expression control. […] GFP was knocked down by Cas13d only when mCherry was present, confirming that this is a collateral activity instead of a result from non-specific gRNA design.

[5] = tested on: mCherry expression in HEK 293 FT cells; assay: Cas13d/gRNA mCherry knockdown, transient transfection, flow cytometry; format: cell-based; details: mCherry expression at various levels
Text: FIG. 4A-4D is a series of schematics and graphs showing that Cas13d achieved robust transgene knockdown in HEK 293 FT cells. FIG. 4A is a schematic showing the necessary components for the CRISPR/Cas13d system. […] Minimizing either one component led to the abolishment of knockdown ability.
In order to gain better understanding of the activity of the Cas13 effector/gRNA system, it was first examined how variation in the expression of each components (e.g., target, guide, and/or effector protein) relate to the knockdown efficiency of the system. HEK 293 FT cells were transiently transfected with the components of the system, and expression of the targeted gene, mCherry, was tested using flow cytometry. […] Another important feature of Cas13d is its ability to process pre-mature gRNA arrays and achieve multiplexed gene targeting. To verify this, pre-gRNAs with spacer regions flanked by 2 direct repeat sequences were transfected with Cas13d into HEK 293 FT cells. Target gene knockdown was later quantified and compared to that by mature gRNAs.

CCCCCCCCCCCCCC(=O)O[C@@H]1[C@@H](C)[C@@]2(O)[C@@H](C=C(CO)C[C@]3(O)C(=O)C(C)=C[C@@H]23)[C@@H]2C(C)(C)[C@]12OC(C)=O [PMA, reference compound]
mCherry knockdown by split Cas13d or WTCas13 expressed from inducible promoter (mCherry [1]): induced mCherry knockdown | activation of NFkB inducible promoter (NFkB promoter): turned on

B1: 565/566: RfxCas13d split between residues 565/566; N and C fragments plain or fused to CID domains (protein)
chain 1: IEKKKSFAKGMGVKSTLVSGSKVYMTTFAEGSDARLEKIVEGDSIRSVNEGEAFSAEMADKNAGYKIGNAKFSHPKGYAVVANNPLYTGPVQQDMLGLKETLEKRYFGESADGNDNICIQVIHNILDIEKILAEYITNAAYAVNNISGLDKDIIGFGKFSTVYTYDEFKDPEHHRAAFNNNDKLINAIKAQYDEFDNFLDNPRLGYFGQAFFSKEGRNYIINYGNECYDILALLSGLRHWVVHNNEEESRISRTWLYNLDKNLDNEYISTLNYLYDRITNELTNSFSKNSAANVNYIAETLGINPAEFAEQYFRFSIMKEQKNLGFNITKLREVMLDRKDMSEIRKNHKVFDSIRTKVYTMMDFVIYRYYIEEDAKVAAANKSLPDNEKSLSEKDIFVINLRGSFNDDQKDALYYDEANRIWRKLENIMHNIKEFRGNKTREYKKKDAPRLPRILPAGRDVSAFSKLMYALTMFLDGKEINDLLTTLINKFDNIQSFLKVMPLIGVNAKFVEEYAFFKDSAKIADELRLIKSFARMGEPIADARRAMYIDAIRILGTNLSYDELK
chain 2: ALADTFSLDENGNKLKKGKHGMRNFIINNVISNKRFHYLIRYGDPAHLHEIAKNEAVVKFVLGRIADIQKKQGQNGKNQIDRYYETCIGKDKGKSVSEKVDALTKIITGMNYDQFDKKRSVIEDTGRENAEREKFKKIISLYLTVIYHILKNIVNINARYVIGFHCVERDAQLYKEKGYDINLKKLEEKGFSSVTKLCAGIDETAPDKRKDVEKEMAERAKESIDSLESANPKLYANYIKYSDEKKAEEFTRQINREKAKTALNAYLRNTKWNVIIREDLLRIDNKTCTLFRNKAVHLEVARYVHAYINDIAEVNSYFQLYHYIMQRIIMNERYEKSSGKVSEYFDAVNDEKKYNDRLLKLLCVPFGYCIPRFKNLSIEALFDRNEAAKFDKEKKKVSGNS
performance after NES/NLS compartmentalization (mCherry [2]; GIB induced split pairs, NES on one moiety, NLS on the other): high inducibility with minimal leakiness | performance of reversed CID orientation versus original orientation (mCherry [2]; GIB: N ss-GAI/GID-ss C, ABA: N ss-PYL/ABI-ss C): stronger inducibility and weaker leakiness | knockdown across the various CID systems (mCherry [2]; split pairs coupled with CID domains, with inducer): efficient knockdown; also recorded: consistently strong drug-induced knockdown | decrease in HLA-A2 expression level (HLA-A2): comparable decrease in HLA-A2 expression level

B2: Cas13d: type VI-D CRISPR-associated RNA-guided ribonuclease Cas13d Ruminococcus flavefaciens, SEQ ID NO: 1 (protein, listed as Ruminococcus flavefaciens)
chain: IEKKKSFAKGMGVKSTLVSGSKVYMTTFAEGSDARLEKIVEGDSIRSVNEGEAFSAEMADKNAGYKIGNAKFSHPKGYAVVANNPLYTGPVQQDMLGLKETLEKRYFGESADGNDNICIQVIHNILDIEKILAEYITNAAYAVNNISGLDKDIIGFGKFSTVYTYDEFKDPEHHRAAFNNNDKLINAIKAQYDEFDNFLDNPRLGYFGQAFFSKEGRNYIINYGNECYDILALLSGLRHWVVHNNEEESRISRTWLYNLDKNLDNEYISTLNYLYDRITNELTNSFSKNSAANVNYIAETLGINPAEFAEQYFRFSIMKEQKNLGFNITKLREVMLDRKDMSEIRKNHKVFDSIRTKVYTMMDFVIYRYYIEEDAKVAAANKSLPDNEKSLSEKDIFVINLRGSFNDDQKDALYYDEANRIWRKLENIMHNIKEFRGNKTREYKKKDAPRLPRILPAGRDVSAFSKLMYALTMFLDGKEINDLLTTLINKFDNIQSFLKVMPLIGVNAKFVEEYAFFKDSAKIADELRLIKSFARMGEPIADARRAMYIDAIRILGTNLSYDELKALADTFSLDENGNKLKKGKHGMRNFIINNVISNKRFHYLIRYGDPAHLHEIAKNEAVVKFVLGRIADIQKKQGQNGKNQIDRYYETCIGKDKGKSVSEKVDALTKIITGMNYDQFDKKRSVIEDTGRENAEREKFKKIISLYLTVIYHILKNIVNINARYVIGFHCVERDAQLYKEKGYDINLKKLEEKGFSSVTKLCAGIDETAPDKRKDVEKEMAERAKESIDSLESANPKLYANYIKYSDEKKAEEFTRQINREKAKTALNAYLRNTKWNVIIREDLLRIDNKTCTLFRNKAVHLEVARYVHAYINDIAEVNSYFQLYHYIMQRIIMNERYEKSSGKVSEYFDAVNDEKKYNDRLLKLLCVPFGYCIPRFKNLSIEALFDRNEAAKFDKEKKKVSGNS
knockdown efficiency ([3]; HEK293T cells, mCherry reporter and endogenous transcripts): 80-95% | knockdown of mCherry and endogenous gene expression ([3]; mammalian cells): 85-90% | effect on bystander iRFP expression ([4]; mCherry on-target knockdown by Cas13d): least disturbed; also recorded: minimally affected | effect on bystander BFP expression ([4]; mCherry targeting Cas13d system): strongly affected | effect on bystander GFP expression ([4]; mCherry targeting Cas13d system, mCherry present): knocked down along with mCherry | mCherry knockdown efficiency [5]: around 80%
